Data taken from PMC3806662.

Target: BiP (human (endogenous in HEK293T)) (UniProt P11021)
Test: co-IP

Sequence of UniProt P11021 (P11021 19-654): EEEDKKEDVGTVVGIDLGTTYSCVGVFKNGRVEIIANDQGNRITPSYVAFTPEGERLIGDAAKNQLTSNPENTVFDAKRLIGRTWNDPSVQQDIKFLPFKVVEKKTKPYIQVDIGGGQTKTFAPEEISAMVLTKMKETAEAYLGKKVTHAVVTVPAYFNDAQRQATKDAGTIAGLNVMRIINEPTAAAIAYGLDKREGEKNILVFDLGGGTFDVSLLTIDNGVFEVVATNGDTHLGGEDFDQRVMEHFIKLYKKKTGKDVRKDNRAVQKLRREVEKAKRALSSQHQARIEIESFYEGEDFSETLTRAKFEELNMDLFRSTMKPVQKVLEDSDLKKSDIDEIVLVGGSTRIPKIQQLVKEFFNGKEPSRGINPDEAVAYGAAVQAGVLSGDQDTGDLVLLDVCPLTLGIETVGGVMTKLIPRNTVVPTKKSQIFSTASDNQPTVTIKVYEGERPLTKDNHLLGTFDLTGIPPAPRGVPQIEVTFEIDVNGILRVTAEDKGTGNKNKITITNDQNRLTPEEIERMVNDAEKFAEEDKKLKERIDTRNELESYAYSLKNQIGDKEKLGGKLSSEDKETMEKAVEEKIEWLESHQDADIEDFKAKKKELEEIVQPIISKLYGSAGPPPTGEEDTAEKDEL

- fold co-precipitated relative to NHK: 2 fold
Substance: QQQ mutant of NHK (from UniProt P01009 25-418) (natural protein)
